Article PMC6316451
Where two headings read alike, the source gives them in different places.

Key:
[1] = target: HIV-1 capsid protein CA N21C/A22C (HIV-1 NL4-3); test: cross-linking; engineered disulfide cross-links read by non-reducing SDS-PAGE; after assembly: purified protein at 1 mg/mL (also about 4 and 10 mg/mL) dialyzed into 50 mM Tris-HCl, pH 8.0, 1 M NaCl overnight at 4 °C, no reductant
[2] = target: HIV-1 capsid protein CA N21C/A22C (HIV-1 NL4-3); test: as above; remark: listed apart in the source

“HIV-1 capsid protein CA N21C/A22C (natural protein)” showed a stoichiometry N [1] of 6 and a stoichiometry N [2] of 5.
